According to the nanobody polyreactivity screen of Harvey et al. (2022):

Assay: yeast display, Sf9 membrane polyspecificity reagent, FACS + sequencing; frameworks hold sequencing errors
Summary of the method: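 Galactose-induced (36–48 hours) yeast carrying a synthetic nanobody display library were exposed to 10% biotinylated, detergent-solubilized Sf9 membrane reagent at 4 °C for 1 hour. FACS followed streptavidin microbead enrichment, using low and high (top ~1%) gates for expression (anti-HA) and reagent binding (streptavidin). Colony PCR, MiSeq 2 × 250 sequencing and CDR-length filtering followed. Labels for polyreactivity reflect the gate of origin.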

Sequence | polyreactivity (PSR sort gate)
QVQLVESGGGLVQAGGSLRLSCAASGRTFEQYAMGWSRQAPGKERELVAAISGSGGSTFYADSVKGRFTISRDNAKNTVYLQMNSLKPEDTAVYYCNAPGDGYLYDHTYDYWGQGTQVTVSS | low polyreactivity
QVQLVESGGGLVQAGGSLRLSCAASGFIFVSNAMGWYRQAPGKERELVAAISKSGARTSYADSVKGRFTISRDNAKNTVYLQMNSLKPEDTAVYYCAASGSGVGIYYKRGNYWGQGTQVTVSS | high polyreactivity
QVQLQESGGGLVQAGGSLRQSCAASGYIFPYYSMGSYRQAPGKERGLVACIAAGTTTNYADSVKGRFTISRDNAKKSVYLQMNSLKPEDAAVYYCAALNAFNTGHWYWGQGTQVTVSS | low polyreactivity
QVQLVESGGGLVQAGGSLRLSCAASGRIFRYNTMGWYRQAPGKERELVADITSSDSSTYYADSVKGRFTISRDNAKNTVYLQMNSLKPEDTAVYYCAARDSGYGWRYYYWGQGTQVTVSS | low polyreactivity
QVQLVESGGGLVQAGGSLRLSCAASGRTFGYYAMGWYRQAPGKERELVAAINWRGDSTYYADSVKGRFTISRDNAKNTVYLQMNSLKPEDTAVYYCAALVRGYDRSIRMDYWGQGTQVTVSS | high polyreactivity
QVQLVESGGGLVQAGGSLRLSCAASGSTFRGNDMGWYRQAPGKERELVASIDWSGGSTYYADSVKGRFTISRDNAKNTVYLQMNSLKPEDTAVYYCAADTSYWYDYYIDYVGYYYWGQGTQVTVSS | high polyreactivity
QVQLVESGGGLVQAGGSLRLSCAASGFTFRVNAMGWYRQAPGKERELVAAISWTGGSTYYADSVKGRFTISRDNAKNTVYLQMNSLKPEDTAVYYCATRFGGRYNEFGFWGQGTQVTVSS | low polyreactivity
QVQLVESGGGLVQAGGSLRLSCAASGSIFAHNAMGWYRKAPGKERELVAAISSGGSTNYADSVKGRFTISRDNAKNTVYLQMISLKPEDTAVYYCAAVQYAPKWWGEYDYWGQGTQVTVSS | low polyreactivity
QVQLVESGGGLVQAGGSLRLSCAASGITFDVNAMGWYRQAPGKERELVAAITAGGNTYYADSVKGRFTISRDNAKNTVYLQLNSLKPEVTAVYYCATQSYYGFYDYDYWGQGTQVTVSS | low polyreactivity
QVQLVESGGGLVQAGGSLRLSCAASGRIFTIYAMGWYRQAPGKERELVAGIRGGGSTNYADSVKGRFTISRDNAKNTVYLLMNSLKPEDTAVYYCAAEVRRYVIVPYYYWGQGTQVTVSS | high polyreactivity
QVQLVESGGGLVQAGGSLRLSCAASGFTFSTNAMGWYRQAPGKETELVAGITSSGGNTYYADSVKGRFTISRDNAKNTVYLQMNSLKPEDTAVYYCAKRRNYVAYDYWGQGTQVTVSS | high polyreactivity
QVQLVESGGGLVQAGGSLRLICAASGIFASYAMGWYRQAPGKERELVAAIRSSGGRTYYADSVKGRFTISRDNAKNTVYLQMNSLKPEDTAVYYCAVASGQSFYWGQGTQVTVSS | high polyreactivity
QVQLQQSGDGLVQAVGSLRLSCAPSGSLSGYYSMGWYREAPGKVRELVAGIDAFGSSTNYADCVIGRFTISRDKATNTVYLQMKSLKPEDTAVYYCAARPDGVRLFSYWGQGTQVTESS | low polyreactivity
QVQLVESGGGLVQAGGSLRLSCAASGITFSSYAMGWYRQAPGKERELVAGITRRGRITYYADSVNGRFTISRDNAKNTVYLQMNSLKPEDTAVYYCAATHRFRTGSPDGGFGYWGQGTQVTVSS | high polyreactivity
QVQLVESGGGLVQAGGSLRLSCAPSGSTFYYYAMGWYRQAPGKERELVAAITYRGGTYYADSVKGRFTISRDNAKNTVYLQMNSLKPEDTAVYYCAAPLSRIMDYWGQGTQVTVSS | high polyreactivity
QDQLVESGGGLVQAGGSLRLSCAASAFIFSSNAMGWYRQAPGKEREFVAAISFRGGTTYYADSVKGRFTISRDNAKNTVYLQMNSLKPEDTAVYYCNAVRWRSGRWWWYDYWGQGTQVTVSS | low polyreactivity

Sequence | polyreactivity (PSR sort gate)
QVQLVESGGGLVQAGGSLRLSCAASGSTFDAYAMGWYRQAPGKDRELVAGISSGGSYEYADSVKGRFTISRDNAKNTVYLQMNSLIPEDTAVYYCAADSRQSVYYYQPTKFDYWGQGSQVTVSS | low polyreactivity
QVQLVESGGGLVQAGGSLRLSCAASGSTFGYYAMGWYRQAPGKERELVAAISRSGTRTYYADSVKGRFTISRDNAKYTVYLQMNSLKPEDTAVYYCAVKGPARGYDYWGQGTQVTVSS | high polyreactivity
QVQLVESGGGLVQAGGSLRLSCAASGFIFLYNAMGWYRPAPGKERQLVAAITSSGATTYYADSVKGRFTISRDNAKNTDYLQMNSLKPEDTAVYYCAARYTGRNGGSTTPEYDYWGQGTQVTVSS | low polyreactivity
QVQLVESGGGLVQAGGSLRLSCAASGLTFAFNVMGWYRQAPGKERELVAAISASGASTYYADSVKGRFTISRDTAKNTVYLQMNSLKPEDTAVYYCAALGYCFSYRYDYWGQGTQVTVSS | high polyreactivity
QVQLVESGGGLVQAGGSLRLSCAASGFTFGYYAMGWYRQAPGKERELVASISSGGSTNYADSVKGRFTISRDNAKNTVYLQMNSLKPEDTAVYYCNKRAYYGRYDYWGQGTQVTVSS | high polyreactivity
QVQRVESGGGLVQAGGSLRLSCAASGIIFQSYAMGWYRHAPGKERELVAAISRRGGRTYYADSVKGRFTISRDNAKNTVYLQMNSLKPEDTAVYYCADRYRYAPYDYWGQGTQVTVSS | high polyreactivity
QVQLVESGGGLVQAGGSLRLSCAASGSTFGLYAMGWYSQAPGKEREMVAVISWRGGSTIYADSVKGRFTISRDNAKITVYLEMNSLKPEDTAVYYCNAKQSYYYPWRGYNYWGQGTQVTVSS | high polyreactivity
QVQLVESGGGLVQAGGSLRLSCAASGFTVWYYAMGWYRQAPGKVRELVASISSIGGSTYYADSVKGRFTISRENAKNTVYLQMNSLKPEDTAVYYCAARYKFLRGVVRRDYWGQGTQVTVSS | high polyreactivity
QVQLVESGGGLVQAGGSLRLSCAASGYTFPYAMGWYRQAPGKERELVAAISSRGSSTYYADSVKGRFTISRDNAKNTVYLQINSLKPEDTAVYYCAAKHFVKVDYWGQGTQVTVSS | high polyreactivity
QVQLEESGGGLVQAGGSLRLSCAASGSTFHTYAMGWYRQAPGKERELVASISYGVTTYYADSVKGRFTISRDNAKNTVYLQMNSLTPEDTAVYYCAREGYNWVYLSYGYWGQGTQVTVSS | low polyreactivity
QVQLVESGGCLVQAGVSLRLSCAASGSIFSPYAMGWYRQAPGKEREFVASITFNGGSTYYADSVKGRFTISRDNAKNTVYLQMNSLKPEDTAVYYCAASYWYDTYWLMDYWGQGPQVTVSS | high polyreactivity
QFQLVESGGGLVQAGGSLRLICAASGITFYPNDMGWYRQSPGKERELVAAITTNDGDTYYADSVKGRFTISRDNAKNTVYLQMNSLKPEDTAVYYCAADSGSTSEYEYWGKGTQVTVSS | low polyreactivity
QVQLVESGGGLVQAGGSLRLSCAASGRTFGRNTMGWYRQAPGKERELVASITRSSGSTYYADSVKGRFTISRDNAKNTVYLQMNSLKPEDTAVSYCNARATSGGDYWGQGTQVTVSS | high polyreactivity
QVQHVESGGGLDQAGGSLRLSCAASGFIFYDYMGWDRQAPGKQRELVAVISYSGSSTNYAYSVKGRFTITRDNAKMTVYLQINSLKPEDTAVYYWAARIVNGWDYDFWGQGSQVTVSS | low polyreactivity
QVQLVESGGGLVQAGGSLRLSCAASGRIFGINAMGWYRQAPGKERELVAAITWSGDGTYYADSVKGRFTISRDNAKNTVYLQMNSLKPEDTAVYYCARYDYWGHGTQVTVSS | low polyreactivity
QVQLVESGGGLVQAGGSLRLSCAASGSTIDYYTMGWYRQEPGKERELVAAISWSGGNTYYADSVKGRFTISRDNAKNTVYLQMNSLKPEDTAVYYCNRVNAYWLRYDYWGQGTQVSVSS | high polyreactivity
